Laboratory results from US20260194525A1.

Assays:
[1] = target: CEACAM1 in a cancer specimen having a high value of CEACAM1 (human) (UniProt P13688); test: CLEIA sandwich without denaturation: 283324 on magnetic particles, biotin-labeled BAF2244 as detector; competitor AF2244 30 ug/mL added to a cancer specimen (FIG. 12)
[2] = target: commercially available recombinant antigen CEACAM1 (R&D Systems) (UniProt P13688); test: ELISA on CEACAM1 coated in PBS; antibody 0.1 ug/mL with against without 10 ug/mL competitor polyclonal AF2244

Row | Substance | quantitative value with the polyclonal antibody added (+) against not added (-) [1] [%] | binding rate by addition of anti-CEACAM1 polyclonal antibody [2] [%]
1 | anti-CEACAM1 antibody 283324 (R&D Systems) | 3 | 41
2 | biotin-labeled anti-CEACAM1 antibody BAF2244 (R&D Systems) | – | 44.8
